In PMC5730846:
pKd: −log10 of the molar value.

Key:
[1] = target: Tsc1-D-His6 labeled with Texas Red maleimide (UniProt Q92574); assay: fluorescence polarisation; fluorescence anisotropy; 1 μM Texas Red-labeled Tsc1-D, Hsp90α at the indicated concentrations; 50 mM Tris pH 7.2, 150 mM NaCl, 1 mM TCEP, 4 mM MgCl2; no nucleotide or drug; single-site fit
[2] = target: Tsc1-D-His6 labeled with Texas Red maleimide (UniProt Q92574); assay: fluorescence polarisation; as a5, Hsp90α pre-incubated with 1 μM GB (ganetespib)
[3] = target: recombinant Hsp90α (human) (UniProt P07900)

Tsc1-D-His6 labeled with Texas Red maleimide, sequence (Q92574 998-1164): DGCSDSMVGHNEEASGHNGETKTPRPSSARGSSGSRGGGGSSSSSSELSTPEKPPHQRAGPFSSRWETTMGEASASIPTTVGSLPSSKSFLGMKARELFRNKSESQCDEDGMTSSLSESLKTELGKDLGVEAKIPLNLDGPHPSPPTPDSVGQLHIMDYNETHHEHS
recombinant Aha1-FLAG, sequence (O95433 whole entry): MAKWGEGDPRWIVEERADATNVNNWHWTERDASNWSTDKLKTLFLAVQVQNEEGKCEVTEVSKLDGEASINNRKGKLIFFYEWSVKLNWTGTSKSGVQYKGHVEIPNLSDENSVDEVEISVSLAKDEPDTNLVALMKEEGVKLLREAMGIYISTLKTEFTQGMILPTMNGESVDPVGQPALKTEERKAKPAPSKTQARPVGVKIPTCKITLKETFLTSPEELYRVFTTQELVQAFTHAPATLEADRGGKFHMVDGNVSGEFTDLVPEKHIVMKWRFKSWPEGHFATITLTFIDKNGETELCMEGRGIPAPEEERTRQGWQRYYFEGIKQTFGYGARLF

| pKd [1] | pKd [2] | Hsp90α ATPase activity in vitro after incubation with 1 μM Tsc1-D-His6 and addition of 1.3 μM Aha1-FLAG (percent of Hsp90α alone) [3] | Substance |
| --- | --- | --- | --- |
| 6.32 | < 5.30 |  | recombinant Hsp90α (from UniProt P07900 1-732) (natural protein) |
|  |  | 100% | recombinant Aha1-FLAG (from UniProt O95433 1-338) (natural protein) |
